Source: patent US20260103748A1 (NAVINCI DIAGNOSTICS, published 2026)

Legend:
[1] = target: T1, Beta-catenin (UniProt P35222 2-781); assay: in situ proximity ligation assay on fixed MCF-7 cells, with blocking oligonucleotide 13+13, RCA and Cy5 detection
T1 construct: Endogenous protein in fixed MCF-7 cells, detected through a primary antibody and oligonucleotide-conjugated secondary antibodies (in situ PLA); also called Beta-caternin
T1 sequence (looked up): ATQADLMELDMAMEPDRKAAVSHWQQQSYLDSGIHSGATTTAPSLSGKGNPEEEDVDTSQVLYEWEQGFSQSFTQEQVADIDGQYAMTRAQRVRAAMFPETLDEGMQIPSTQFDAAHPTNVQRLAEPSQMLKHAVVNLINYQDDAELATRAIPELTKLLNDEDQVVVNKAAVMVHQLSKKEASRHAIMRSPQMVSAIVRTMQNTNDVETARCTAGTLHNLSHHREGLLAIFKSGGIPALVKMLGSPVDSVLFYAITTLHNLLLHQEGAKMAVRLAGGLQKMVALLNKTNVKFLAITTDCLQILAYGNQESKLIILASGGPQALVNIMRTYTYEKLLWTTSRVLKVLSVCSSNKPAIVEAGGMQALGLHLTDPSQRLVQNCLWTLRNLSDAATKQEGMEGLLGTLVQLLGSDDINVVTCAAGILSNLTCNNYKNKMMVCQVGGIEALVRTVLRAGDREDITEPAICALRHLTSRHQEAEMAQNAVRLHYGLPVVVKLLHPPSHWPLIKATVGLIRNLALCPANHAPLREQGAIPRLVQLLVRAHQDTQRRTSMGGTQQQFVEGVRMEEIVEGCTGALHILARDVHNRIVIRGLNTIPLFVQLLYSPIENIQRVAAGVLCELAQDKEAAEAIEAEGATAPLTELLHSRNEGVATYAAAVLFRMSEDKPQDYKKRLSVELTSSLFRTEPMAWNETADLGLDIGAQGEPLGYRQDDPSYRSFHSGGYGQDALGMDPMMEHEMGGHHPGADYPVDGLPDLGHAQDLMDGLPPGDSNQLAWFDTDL

[2] = target: T2, AKT2 (human, UniProt P31751 1-481); assay: multiplex in situ PLA on fixed human breast cancer cells with or without EGF
T2 construct: Endogenous protein in fixed human breast cancer cells (isPLA)
T2 sequence (P31751 whole entry): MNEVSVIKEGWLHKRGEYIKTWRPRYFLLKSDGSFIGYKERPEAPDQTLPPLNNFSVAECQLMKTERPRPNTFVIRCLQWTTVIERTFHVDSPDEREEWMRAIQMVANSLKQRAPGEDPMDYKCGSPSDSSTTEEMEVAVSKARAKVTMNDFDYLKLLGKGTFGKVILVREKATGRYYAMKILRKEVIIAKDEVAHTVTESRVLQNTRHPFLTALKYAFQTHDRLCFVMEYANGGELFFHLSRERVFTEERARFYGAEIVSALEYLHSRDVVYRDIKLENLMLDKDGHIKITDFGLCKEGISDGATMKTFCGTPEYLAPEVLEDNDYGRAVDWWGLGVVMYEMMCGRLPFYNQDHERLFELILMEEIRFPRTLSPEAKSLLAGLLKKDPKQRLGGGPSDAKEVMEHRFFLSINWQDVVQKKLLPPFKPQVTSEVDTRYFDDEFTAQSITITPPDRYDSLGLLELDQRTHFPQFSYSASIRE
Procedure: (§1) Detection was performed in three imaging rounds with stripping of the specific fluorescently-labelled detection probe between rounds. DAPI staining is shown in each image. Three isPLA reactions are detected per round using either a FITC, Cy3 or Cy5 filter. The isPLA assays target protein phosphorylation-protein or protein-protein interactions.
(§2) In situ PLA probes using the set-up illustrated in FIG. 3 were generated to target protein-protein interactions or protein-protein phosphorylation targets. Each isPLA probe set contains a unique oligonucleotide sequence that is complimentary to a fluorescent-conjugated detection oligonucleotide. The detection oligos are conjugated to either FITC, Cy3 or Cy5.
(§3) Following probe incubation, the padlocks were circularised by ligation, subjected to RCA to generate RCA products and detected with fluorescently labelled detection probes. Detection was performed in three rounds (see FIG. 11). […] Next, the detection oligos were stripped and new detection oligos were added targeting phosphorylated Grb2, phosphorylated Pi3K and phosphorylated STAT3. The same procedure was repeated again to detect phosphorylated Pi3K-PanAKT interaction, STAT5a-JAK2 interaction and JAK1-JAK3 interaction.

[3] = target: T3, JAK2 (human, UniProt O60674 1-1132); assay: as above
T3 construct: Endogenous protein in fixed human breast cancer cells (isPLA)
T3 sequence (O60674 whole entry): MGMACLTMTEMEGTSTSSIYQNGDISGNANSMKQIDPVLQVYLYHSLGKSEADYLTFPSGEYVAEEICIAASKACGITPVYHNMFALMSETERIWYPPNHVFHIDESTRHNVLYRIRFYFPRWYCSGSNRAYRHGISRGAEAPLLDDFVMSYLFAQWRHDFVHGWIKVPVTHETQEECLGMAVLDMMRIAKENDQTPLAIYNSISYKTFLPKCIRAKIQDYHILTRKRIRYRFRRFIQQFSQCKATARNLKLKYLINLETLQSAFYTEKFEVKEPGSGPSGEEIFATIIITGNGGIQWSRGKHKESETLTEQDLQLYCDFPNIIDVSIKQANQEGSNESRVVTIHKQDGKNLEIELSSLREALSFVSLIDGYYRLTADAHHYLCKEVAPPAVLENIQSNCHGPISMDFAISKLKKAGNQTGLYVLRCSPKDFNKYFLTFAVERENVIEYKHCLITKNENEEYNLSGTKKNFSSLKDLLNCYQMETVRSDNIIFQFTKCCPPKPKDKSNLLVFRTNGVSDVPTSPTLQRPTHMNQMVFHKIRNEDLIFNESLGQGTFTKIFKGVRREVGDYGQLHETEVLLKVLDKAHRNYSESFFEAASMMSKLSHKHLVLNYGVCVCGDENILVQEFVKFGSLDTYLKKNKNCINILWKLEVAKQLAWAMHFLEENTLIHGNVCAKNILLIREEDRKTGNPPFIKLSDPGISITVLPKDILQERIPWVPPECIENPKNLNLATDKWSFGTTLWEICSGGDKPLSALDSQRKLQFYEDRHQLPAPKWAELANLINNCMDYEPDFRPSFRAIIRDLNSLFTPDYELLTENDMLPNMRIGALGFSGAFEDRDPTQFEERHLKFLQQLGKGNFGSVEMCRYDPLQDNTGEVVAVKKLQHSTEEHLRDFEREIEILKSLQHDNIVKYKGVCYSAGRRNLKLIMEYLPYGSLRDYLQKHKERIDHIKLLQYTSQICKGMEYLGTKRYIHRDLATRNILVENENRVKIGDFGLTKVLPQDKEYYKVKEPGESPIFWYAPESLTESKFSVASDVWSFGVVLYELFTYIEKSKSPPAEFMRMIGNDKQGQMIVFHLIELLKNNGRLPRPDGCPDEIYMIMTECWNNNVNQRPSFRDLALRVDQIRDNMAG
Procedure: as §1, §2, §3

B1: E-cadherin (other, UniProt P12830 155-882, looked up)
chain: DWVIPPISCPENEKGPFPKNLVQIKSNKDKEGKVFYSITGQGADTPPVGVFIIERETGWLKVTEPLDRERIATYTLFSHAVSSNGNAVEDPMEILITVTDQNDNKPEFTQEVFKGSVMEGALPGTSVMEVTATDADDDVNTYNAAIAYTILSQDPELPDKNMFTINRNTGVISVVTTGLDRESFPTYTLVVQAADLQGEGLSTTATAVITVTDTNDNPPIFNPTTYKGQVPENEANVVITTLKVTDADAPNTPAWEAVYTILNDDGGQFVVTTNPVNNDGILKTAKGLDFEAKQQYILHVAVTNVVPFEVSLTTSTATVTVDVLDVNEAPIFVPPEKRVEVSEDFGVGQEITSYTAQEPDTFMEQKITYRIWRDTANWLEINPDTGAISTRAELDREDFEHVKNSTYTALIIATDNGSPVATGTGTLLLILSDVNDNAPIPEPRTIFFCERNPKPQVINIIDADLPPNTSPFTAELTHGASANWTIQYNDPTQESIILKPKMALEVGDYKINLKLMDNQNKDQVTTLEVSVCDCEGAAGVCRKAQPVEAGLQIPAILGILGGILALLILILLLLLFLRRRAVVKEPLLPPEDDTRDNVYYYDEEGGGEEDQDFDLSQLHRGLDARPEVTRNDVAPTLMSVPRYLPRPANPDEIGNFIDENLKAADTDPTAPPYDSLLVFDYEGSGSEAASLSSLNSSESDKDQDYDYLNEWGNRFKKLADMYGGGEDD
notes: Endogenous protein in fixed MCF-7 cells, detected through a primary antibody and oligonucleotide-conjugated secondary antibodies (in situ PLA)
B1: binds [1].

B2: AKT3 (enzyme, human, UniProt Q9Y243 2-479, looked up)
chain: SDVTIVKEGWVQKRGEYIKNWRPRYFLLKTDGSFIGYKEKPQDVDLPYPLNNFSVAKCQLMKTERPKPNTFIIRCLQWTTVIERTFHVDTPEEREEWTEAIQAVADRLQRQEEERMNCSPTSQIDNIGEEEMDASTTHHKRKTMNDFDYLKLLGKGTFGKVILVREKASGKYYAMKILKKEVIIAKDEVAHTLTESRVLKNTRHPFLTSLKYSFQTKDRLCFVMEYVNGGELFFHLSRERVFSEDRTRFYGAEIVSALDYLHSGKIVYRDLKLENLMLDKDGHIKITDFGLCKEGITDAATMKTFCGTPEYLAPEVLEDNDYGRAVDWWGLGVVMYEMMCGRLPFYNQDHEKLFELILMEDIKFPRTLSSDAKSLLSGLLIKDPNKRLGGGPDDAKEIMRHSFFSGVNWQDVYDKKLVPPFKPQVTSETDTRYFDEEFTAQTITITPPEKYDEDGMDCMDNERRPHFPQFSYSASGRE
notes: Endogenous protein in fixed human breast cancer cells (isPLA)
B2: binds [2].

B3: STAT5a (other, human, UniProt P42229 1-794, looked up)
chain: MAGWIQAQQLQGDALRQMQVLYGQHFPIEVRHYLAQWIESQPWDAIDLDNPQDRAQATQLLEGLVQELQKKAEHQVGEDGFLLKIKLGHYATQLQKTYDRCPLELVRCIRHILYNEQRLVREANNCSSPAGILVDAMSQKHLQINQTFEELRLVTQDTENELKKLQQTQEYFIIQYQESLRIQAQFAQLAQLSPQERLSRETALQQKQVSLEAWLQREAQTLQQYRVELAEKHQKTLQLLRKQQTIILDDELIQWKRRQQLAGNGGPPEGSLDVLQSWCEKLAEIIWQNRQQIRRAEHLCQQLPIPGPVEEMLAEVNATITDIISALVTSTFIIEKQPPQVLKTQTKFAATVRLLVGGKLNVHMNPPQVKATIISEQQAKSLLKNENTRNECSGEILNNCCVMEYHQATGTLSAHFRNMSLKRIKRADRRGAESVTEEKFTVLFESQFSVGSNELVFQVKTLSLPVVVIVHGSQDHNATATVLWDNAFAEPGRVPFAVPDKVLWPQLCEALNMKFKAEVQSNRGLTKENLVFLAQKLFNNSSSHLEDYSGLSVSWSQFNRENLPGWNYTFWQWFDGVMEVLKKHHKPHWNDGAILGFVNKQQAHDLLINKPDGTFLLRFSDSEIGGITIAWKFDSPERNLWNLKPFTTRDFSIRSLADRLGDLSYLIYVFPDRPKDEVFSKYYTPVLAKAVDGYVKPQIKQVVPEFVNASADAGGSSATYMDQAPSPAVCPQAPYNMYPQNPDHVLDQDGEFDLDETMDVARHVEELLRRPMDSLDSRLSPPAGLFTSARGSLS
notes: as for B2
B3: binds [3].
